Laboratory results: the RNAGym collection of RNA variant scans (doi:10.1073/pnas.2313332121)

B1: TPR t1 (parent)
chain: GACCAAUCUGCCCUCAGAGCUCGAGAACAUCUUCGGAUGCAGAGGAGGCAGGCUUCGGUGGCGCGAUAGCGCCAACGUCCUCAACCUCCAAUGCAUCCCACCACAUGAUGAUGCCUGAAGAGCCUUGGUUUUUUG

Variants of: B1
Assay: polymerase ribozyme fitness, log enrichment relative to wild type (log ratio); higher = more active; in vitro selection for triplet polymerase activity
Outline: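 Streptavidin-bead capture of gel-excised extended constructs, followed by RT-PCR, closed a single triplicate in vitro selection round. That round began by annealing PCR-built, transcribed mutant libraries of each subunit of a heterodimeric triplet polymerase ribozyme with a biotinylated primer, the partner subunit and triplets, then incubating them frozen at −7 °C. After Illumina sequencing of inputs and outputs, genotypes needed ≥10 input reads and ≥1 read per output. Fitness is the base-2 logarithm of genotype enrichment over wild-type enrichment, using inverse-variance-weighted replicate averages.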

Row | Variant | polymerase ribozyme fitness (log ratio)
1 | G44U U55A A68U G69U C86G G120U | -7.36
2 | G45U C49U G69U A121U G128C | -1.32
3 | G45A G113U | -2.04
4 | G45A G113A | -1.71
5 | G45C C53U G63C U116G | -3.05
6 | G44U U133G | -1.78
7 | G45C U112C | 1.16
8 | G44C G47A G61U U133A | -1.13
9 | G45A A100U | -2.26
10 | G45A U55G G77A | -1.78
11 | G45C U106A | -1.34
12 | G44C G69U A75G C79U U87A C97U G135U | -5.55
13 | G45C G61A | 0.0573
14 | G44U U129A U131A | -3.84
15 | G45C C70U | -1.4
16 | G44U U87C U106C | -1.29
17 | G44U C49A C56U G117A | -2.64
18 | G45A C73U G113A C115U | -4.38
19 | G45C C79A | -2.14
20 | G44U C62G C79U A90G | -1.45
21 | G45U G47U G113A | -3.45
22 | G45U A50G C73U U133A | -1.75
23 | G45C C102A | -3.26
24 | G45C C56U U81G G113C | -4.36

Row | Variant | polymerase ribozyme fitness (log ratio)
25 | G44C U55A A103U U130A | -5.8
26 | G45U C72G C114A | -2.66
27 | G44U U112G | -1.6
28 | G44U U112C | 0.722
29 | G45C G63A U106A | -1.21
30 | G44U U54C G113C | -3.08
31 | G45U G51U C62U U78C C80G | -4.39
32 | G45U C88A U130G | -0.102
33 | G44C G60A | -1.01
34 | G45U C73U | -1.98
35 | G45U C73G | -0.942
36 | G44U C53G G71U C73A C82U U129G | -3.9
37 | G45C C76G U125G | -1.06
38 | G45C G69A | -3.75
39 | G45A G61C | -1.97
40 | G45C A46U C72G | -2.36
41 | G45A U54A C56U G57U U87G A91G G93A | -3.65
42 | G44U G47U | -2.16
43 | G44U C114U U132A | -2.69
44 | G44U A91U | -2.13
45 | G45C C104A G120A | -1.45
46 | G45U A50U G58C C114G | -5.4
47 | G44U A90U G135U | -2.19
48 | G44U C64U C102A | -2.68

Row | Variant | polymerase ribozyme fitness (log ratio)
49 | G45A C86A | -1.9
50 | G45U A46C U54C A90G | -1.94
51 | G45C A74G A75U G77C C88U G135C | -1.28
52 | G45C A68G U112A A118U | -4.16
53 | G44U A83C | -1.34
54 | G45C G51A | -3.29
55 | G44C G69A | -4.37
56 | G45U A90C | -1.56
57 | G45C C72U C85G | -3.66
58 | G45U C72A C114A C123G U133A | -2.6
59 | G45A C73U G93C | -1.34
60 | G45U G60C U78G | -3.53
61 | G45U C94U | -1.46
62 | G45U C94A | -1.66
63 | G45A C49G U106C U112A | -0.738
64 | G45C G77U | -1.32
65 | G45U C88U | -0.272
66 | G44U C56A G127C | -2.27
67 | G45A G60A | -1.47
68 | G45A U130C | -1.02
69 | G45C C97A | -4.5
70 | G44U C72A | -1.04
71 | G44C G58C A121G | 1.21
72 | G45U C53A C64A U112A G117A | -6.13

Row | Variant | polymerase ribozyme fitness (log ratio)
73 | G44U G61A C98A G117U | -7.12
74 | G45A C62U U112G C115G | -2.08
75 | G45A C56U | -0.103
76 | G45C C73U G117A G135U | -4
77 | G45U C70A | -2.74
78 | G45A C64A | -6.18
79 | G45A G52U C79U A95C A121C | -0.812
80 | G44U G61A | -1.47
81 | G44U G61U | -0.394
82 | G44U G61C | -2.36
83 | G44U C89A | 0.219
84 | G44U C124G | -0.383
85 | G44C G47U U81A | -4.12
86 | G45U A50U G60U C79G | -2.53
87 | G45A C64U C86U C115A C123G | -1.22
88 | G45A C70G | -3.56
89 | G45A C70A | -1.89
90 | G44U G45A G122A | -3.13
91 | G45U A74C G77A U112C | 1.05
92 | G45U C49U G61A C115G | -2.62
93 | G45U C53A G69A C89A C104U C124A G135A | -6.34
94 | G44U G61U G110U | -1.97
95 | G45A C62U U96G | -1.28
96 | G45U G51A | -3.89

Row | Variant | polymerase ribozyme fitness (log ratio)
97 | G45C A50C | -0.909
98 | G44C G120C | -0.584
99 | G44U G47U C49U C72A A74G U96G U132A | -5.92
100 | G45A G48U C53G C72A | -0.719
101 | G45A G48U U112G | -2.7
102 | G44U G48A C114A | -2.35
103 | G45U A95U | -1.69
104 | G45A C124U | 0.272
105 | G45A C88A U112G | -0.116
106 | G45A C72U | -0.796
107 | G45C U87C A108U | -6.32
108 | G44U C49A | -2.67
109 | G44C G63A C86A | -3.09
110 | G45A C97U | -2.83
111 | G44U | -1.16
112 | G44C U92G | -2.61
113 | G45C G60C A84G | -2.3
114 | G45A A83C A84U A100G G122U C123G | -5.96
115 | G45A C53G U59G C104A U112A | -0.739
116 | G44C G58C U59C U96A | -1.98
117 | G45U A50U | -2.62
118 | G45A C64U A83G U96G G122A | -2.56
119 | G45A C73A G113U | -4.75
120 | G45A G71U G120A U133A | -0.0049

Row | Variant | polymerase ribozyme fitness (log ratio)
121 | G44U G45C | -2.69
122 | G44U G45U G60C C72U C101U A121G U131C | -0.75
123 | G45A U59C C86A | -3.96
124 | G44C U116G C124G | -3.04
125 | G45C A118G A121U | -1.69
126 | G44U A46U | -1.83
127 | G45A C49A G117A | -2.04
128 | G45U A111U C124U | -3.45
129 | G44U G48A C76U C85A C88A | -2.99
130 | G45C C115U A121G G128A | -4.67
131 | G45C A50C A121C | 0.0664
132 | G45C C62G G93U | -5.04
133 | G45U C56G | -2.16
134 | G45U C56U | -1.13
135 | G45U A46U | -2.3
136 | G45U A46C | -2.05
137 | G44U G47C C53U C72G | -4.81
138 | G45A C56U A90U | -1.57
139 | G44U U131A | -1.33
140 | G45C U96A | -1.79
141 | G45A C98U U106A | -1.28
142 | G44U U109A | -5.43
143 | G45U G47U C53A G57A G58U C86A | -2.17
144 | G45A G69U | 1.63

Row | Variant | polymerase ribozyme fitness (log ratio)
145 | G45U A50U C53A C114U | -3.7
146 | G44U C98A G120U | -6.27
147 | G45A G71U | -0.591
148 | G45A G71C | -1.76
149 | G44U C64G C101G A121U | -6.22
150 | G45U A74C A108G | -3.25
151 | G45C G48U G60A G61A A83C | -3.56
152 | G45U A84C C94A | -2.59
153 | G45C A84G | -1.49
154 | G44U G48U C114A | -2.93
155 | G44U U106G A119G | -1.15
156 | G45U C70A C85A A90U | -6.19
157 | G44C U106C | -0.754
158 | G45A G71U A84G | -2.48
159 | G44U U92C | -1.82
160 | G45A C104U | -0.463
161 | G44U G63C | -1.66
162 | G44U G63A | -1.62
163 | G44U C73A C102A | -2.29
164 | G45C C80U U87A | -2.93
165 | G44U G47U C49G | -5.36
166 | G45C U129C | -2.28
167 | G44C U106C G135C | -1.28
